Ends that are not written are not given here.
T1: PPARγ ligand-binding domain, wild type, His-hPPARγ (231–505) (human, UniProt P37231-1 231-505)
T1 construct: Cloned in pET15b; also called PPARγ LBD WT; PPARγ WT; source: E. coli BL21 DE3, purified (Ni-NTA, size exclusion on Superdex 200)
T1 sequence (looked up): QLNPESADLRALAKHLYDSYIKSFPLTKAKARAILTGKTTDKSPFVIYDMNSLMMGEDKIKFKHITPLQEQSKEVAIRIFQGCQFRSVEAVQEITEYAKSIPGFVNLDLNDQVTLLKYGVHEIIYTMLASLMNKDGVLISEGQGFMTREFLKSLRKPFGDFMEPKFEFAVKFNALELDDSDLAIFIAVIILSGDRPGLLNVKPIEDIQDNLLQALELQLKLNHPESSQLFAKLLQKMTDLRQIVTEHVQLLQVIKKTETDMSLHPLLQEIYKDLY

T2: PPARγ ligand-binding domain, wild type, His-hPPARγ (231–505) (human, UniProt P37231-1 231-505)
T2 chain: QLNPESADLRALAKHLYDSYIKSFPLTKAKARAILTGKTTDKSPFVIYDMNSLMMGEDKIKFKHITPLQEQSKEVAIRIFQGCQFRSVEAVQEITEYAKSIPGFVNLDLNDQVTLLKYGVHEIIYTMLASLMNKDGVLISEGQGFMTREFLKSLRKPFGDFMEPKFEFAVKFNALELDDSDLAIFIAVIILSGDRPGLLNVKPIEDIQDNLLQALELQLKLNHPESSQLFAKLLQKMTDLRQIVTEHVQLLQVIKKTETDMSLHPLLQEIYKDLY


Columns and labels:
[1] = target: T1, PPARγ ligand-binding domain, wild type, …; assay: native MS; native electrospray MS, 5 µM protein in 200 mM ammonium acetate pH 6.8; GW1929 and coactivator peptide added; conditions: both partners purified
[2] = target: T2, PPARγ ligand-binding domain, wild type, …; assay: MST; with rosiglitazone
[3] = target: T1, PPARγ ligand-binding domain, wild type, …; assay: MST; no ligand; unlabeled PPARγ LBD (100 µM to 2 nM) titrated into 150 nM fluorescent PGC1α peptide; 20 mM Tris pH 8.0, 200 mM NaCl, 1 mM TCEP, 0.05% Tween 20, 25 °C; apparent Kd; conditions: both partners purified
[4] = target: T2, PPARγ ligand-binding domain, wild type, …; assay: MST; apo (no ligand)
[5] = target: T2, PPARγ ligand-binding domain, wild type, …; assay: MST; with GW1929

Row | binding result [1] | Kd [2] [nM] | binding result [3] | Kd [4] [nM] | Kd [5] [nM] | Binder
1 | binds |  |  |  |  | EEPSLLKKLLLAPA (PGC1α (PPARGC1A) residues 139-152; source: synthetic peptide (IGBMC peptide synthesis common facility)) [PGC1α peptide (139-EEPSLLKKLLLAPA-152)]
2 |  | 1000 | binds | 1700 | 380 | EAEEPSLLKKLLLAPA (also: fluorescent label (dye and position not given here), PGC1α (PPARGC1A) residues 137-152, NR1 LXXLL motif; also called fluorescently labeled PGC1α peptide; PGC1α NR1 motif; source: bought: Thermo-Fisher (synthetic peptide)) [fluorescent PGC1α peptide (137-EAEEPSLLKKLLLAPA-152)]
